Source: patent US20050054012, “Methods of detecting and treating facioscapulohumeral muscular dystrophy” (published 2005)
Residue numbers refer to the chain shown, from its start.

Columns and labels:
[1] = molecular target: T1, GST-YY1 (UniProt P25490 P25490:1-414); assay: EMSA; 50 mM KCl, pH 8, poly(dI-dC), on ice; conditions: tags: GST fusion, expressed in E. coli; label: 32P end
Protocol: (§1) The Kpnl-D4Z4 unit plasmid, used to generate EMSA probes for the experiments shown in FIGS. 2A-2C, was kindly provided by L. Felicetti. For the EMSA experiments shown in FIG. 4, oligonucleotide probes were prepared by end-labeling double-stranded oligonucleotides covering the region of the minimal binding site. The sequences of the oligonucleotides were as follows: WT, 5′-[…]-3′ (SEQ ID NO:1); MUT, 5′-CTCACCGCCgcc[…]-3′ (SEQ ID NO:2) (mutated nucleotides are shown in italics). DNA binding reactions were carried out in 20 μl of 10 mM HEPES (pH 8), 10% glycerol, 50 mM KCl, 0.1 mM EDTA, 0.25 mM DTT, 0.1 mg/ml poly (dl-dC), 0.1 mg/ml bovine serum albumin, 20,000 cpm of radiolabeled probe. The samples were incubated for 30 minutes on ice in the presence of the indicated nuclear extract or protein fraction. For competition assays, unlabeled probes were added to the reaction mixture at the same time as the labeled probe. For supershift assays, a binding reaction was assembled in the absence of radiolabeled probe. Antibodies were added to the binding reaction and the samples were incubated 15 minutes at room temperature. Radiolabled probe was added and the samples were incubated for additional 30 minutes on ice. Reaction mixtures were loaded in the cold room onto 6% native polyacrylamide gels containing 0.5×Tris-borate-EDTA (TBE) that had been preelectrophoresed for 30 minutes at 20 mA. […]

[2] = molecular target: GST (UniProt P08515 P08515:2-218); assay: EMSA; GST alone control; conditions: tags: GST alone, label: 32P end
GST, sequence (P08515 2-218, one chain of several): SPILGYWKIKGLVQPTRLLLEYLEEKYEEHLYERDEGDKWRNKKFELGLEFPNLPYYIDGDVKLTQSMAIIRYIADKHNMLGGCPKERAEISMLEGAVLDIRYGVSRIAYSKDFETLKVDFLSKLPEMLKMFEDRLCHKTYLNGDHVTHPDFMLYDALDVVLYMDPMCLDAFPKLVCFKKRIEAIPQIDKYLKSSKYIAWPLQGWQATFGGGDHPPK
Protocol: as §1

[3] = molecular target: T1, GST-YY1; assay: EMSA; YY1 core mutated; conditions: tags: GST fusion, expressed in E. coli; label: 32P end
Protocol: as §1

T1 sequence (P25490 whole entry, the tested form may be a part, one chain of several): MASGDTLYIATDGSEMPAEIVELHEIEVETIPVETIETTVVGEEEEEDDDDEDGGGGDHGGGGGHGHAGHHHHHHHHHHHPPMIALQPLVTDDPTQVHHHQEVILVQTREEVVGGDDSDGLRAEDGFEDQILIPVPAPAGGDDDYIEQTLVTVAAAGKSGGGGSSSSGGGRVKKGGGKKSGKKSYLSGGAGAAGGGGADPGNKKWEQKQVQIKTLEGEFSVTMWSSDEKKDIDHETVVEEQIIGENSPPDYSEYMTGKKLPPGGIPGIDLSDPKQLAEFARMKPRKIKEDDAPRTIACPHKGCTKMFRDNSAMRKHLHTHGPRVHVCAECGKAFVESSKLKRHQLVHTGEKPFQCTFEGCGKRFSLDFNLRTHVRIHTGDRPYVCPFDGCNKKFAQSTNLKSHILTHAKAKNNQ

B1: DBE WT probe (dsDNA)
DNA 1: CTCACCGCCATTCATGAAGGGGTGGAGCCTGCCTG
DNA 2: CAGGCAGGCTCCACCCCTTCATGAATGGCGGTGAG
B1: binds [1]; no binding [2].

B2: DBE MUT probe (dsDNA)
DNA 1: B1 DNA 1 with A10G, T11C, T12C
DNA 2: B1 DNA 2 with A24G, A25G, T26C
B2: no binding [3].
